Measured values from patent US20260097113A1 (Pfizer, published 2026).

Columns and labels:
[1] = target: RSV A + RSV B bivalent composition (RSV subtype A; RSV subtype B); assay: AM14 Fab titration by SEC; Low-Fast cycle; 1 M 40°C (second value)
[2] = target: RSV A + RSV B bivalent composition (RSV subtype A; RSV subtype B); assay: AM14 Fab titration by SEC; Low-Fast cycle; 1 M 25°C
[3] = target: RSV A + RSV B bivalent composition (RSV subtype A; RSV subtype B); assay: AM14 Fab titration by SEC; composition of Table 14; Drying Temp + Ramp Aggressive cycle
[4] = target: T1, RSV F protein of subtype A comprising a polypeptide of SEQ ID NO: 1 and a polypeptide of SEQ ID NO: 2 (RSV subtype A, UniProt P11209 137-513; P03420 26-109); assay: AM14 ELISA; F9 (pH 8, 50 mM NaCl, 4.5% sucrose); 2 wk 5°C
T1 construct: Stabilized prefusion F trimer made of three F2-F1 heterodimers; Produced recombinantly in CHO cells; also called RSV A; RSVA
T1 chain 1: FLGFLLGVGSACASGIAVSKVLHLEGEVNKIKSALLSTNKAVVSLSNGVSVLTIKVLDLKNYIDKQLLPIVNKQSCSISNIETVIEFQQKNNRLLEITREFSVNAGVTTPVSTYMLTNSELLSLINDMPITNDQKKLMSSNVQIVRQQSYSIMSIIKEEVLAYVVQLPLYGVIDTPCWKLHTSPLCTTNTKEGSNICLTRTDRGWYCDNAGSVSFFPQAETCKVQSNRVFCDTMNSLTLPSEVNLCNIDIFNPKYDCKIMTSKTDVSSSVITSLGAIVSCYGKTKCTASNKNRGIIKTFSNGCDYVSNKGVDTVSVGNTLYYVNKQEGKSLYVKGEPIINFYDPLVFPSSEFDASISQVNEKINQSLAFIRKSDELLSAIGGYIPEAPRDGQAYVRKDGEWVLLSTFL
T1 chain 2: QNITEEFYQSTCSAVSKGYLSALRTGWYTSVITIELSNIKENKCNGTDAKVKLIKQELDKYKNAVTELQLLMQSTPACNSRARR

[5] = target: T2, RSV F protein comprising a polypeptide of SEQ ID NO: 3 and a polypeptide of SEQ ID NO: 4 (RSV subtype B, UniProt O36634 137-513; O36634 26-109); assay: AM14 prefusion assay relative to standard; RSV B 480 µg/mL, 2% sucrose + 4% mannitol; pre-lyo
T2 construct: also called RSV B; RSVB
T2 chain 1: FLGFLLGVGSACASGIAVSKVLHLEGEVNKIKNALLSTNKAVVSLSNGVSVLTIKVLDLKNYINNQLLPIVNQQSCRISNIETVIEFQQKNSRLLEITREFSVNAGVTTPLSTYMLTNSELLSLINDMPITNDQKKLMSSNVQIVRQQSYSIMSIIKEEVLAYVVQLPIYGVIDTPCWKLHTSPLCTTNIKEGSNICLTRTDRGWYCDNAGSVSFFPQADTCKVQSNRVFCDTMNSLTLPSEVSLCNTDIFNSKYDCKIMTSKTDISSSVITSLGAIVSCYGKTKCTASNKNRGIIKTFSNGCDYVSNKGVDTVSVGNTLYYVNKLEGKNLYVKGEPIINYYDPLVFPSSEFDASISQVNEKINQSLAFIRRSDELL
T2 chain 2: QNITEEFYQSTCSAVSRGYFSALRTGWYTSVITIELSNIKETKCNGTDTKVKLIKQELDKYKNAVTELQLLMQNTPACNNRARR

[6] = target: T1, RSV F protein of subtype A comprising a …; assay: AM14 ELISA; F12 (pH 8, 100 mM NaCl, 9.0% sucrose); 2 wk 25°C
[7] = target: T1, RSV F protein of subtype A comprising a …; assay: AM14 ELISA; F18 (pH 7, 50 mM NaCl, 3% sucrose + 3% mannitol); T0
[8] = target: T1, RSV F protein of subtype A comprising a …; assay: AM14 ELISA; F14 (pH 7, 50 mM NaCl, 4.5% sucrose); T0
[9] = target: T1, RSV F protein of subtype A comprising a …; assay: AM14 ELISA; F7 (pH 6, 100 mM NaCl, 0% sucrose); 1 wk 5°C
[10] = target: T1, RSV F protein of subtype A comprising a …; assay: AM14 ELISA; F17 (pH 7, 50 mM NaCl, 4.5% trehalose); 1 wk 25°C
[11] = target: T1, RSV F protein of subtype A comprising a …; assay: AM14 ELISA; F8 (pH 7, 50 mM NaCl, 0% sucrose); 1 wk 5°C
[12] = target: T1, RSV F protein of subtype A comprising a …; assay: AM14 ELISA; F17 (pH 7, 50 mM NaCl, 4.5% trehalose); 2 wk 25°C
[13] = target: T1, RSV F protein of subtype A comprising a …; assay: AM14 ELISA; F16 (pH 6, 0 mM NaCl, 0% sucrose); T0

Row | Molecule | Prefusion Content (%) [1] | Prefusion Content (%) [2] | Prefusion Content (%) [3] | AM14 prefusion content (%), relative to standard [4] | AM14 prefusion content (%), relative to standard [5] | AM14 prefusion content (%), relative to standard [6] | AM14 prefusion content (%), relative to standard [7] | AM14 prefusion content (%), relative to standard [8] | AM14 prefusion content (%), relative to standard [9] | AM14 prefusion content (%), relative to standard [10] | AM14 prefusion content (%), relative to standard [11] | AM14 prefusion content (%), relative to standard [12] | AM14 prefusion content (%), relative to standard [13]
1 | AM14 Fab | 70% | 63% | 67% | – | – | – | – | – | – | – | – | – | –
2 | AM14 (trimeric prefusion specific antibody of the AM14 ELISA) (antibody, V domains shown, Antibody as used in the AM14 ELISA, detected with an HRP-labeled secondary antibody) VH: EVQLVESGGGVVQPGRSLRLSCAASGFSFSHYAMHWVRQAPGKGLEWVAVISYDGENTYYADSVKGRFSISRDNSKNTVSLQMNSLRPEDTALYYCARDRIVDDYYYYGMDVWGQGATVTVSS VL: DIQMTQSPSSLSASVGDRVTITCQASQDIKKYLNWYHQKPGKVPELLMHDASNLETGVPSRFSGRGSGTDFTLTISSLQPEDIGTYYCQQYDNLPPLTFGGGTKVEIKR | – | – | – | 92% | 90% | 55% | 91% | 102% | 61% | 105% | 99% | 64% | 80%
